Measurements: patent US20050181995A1 (NEC SOFT, published 2005)

T1: Flt-4 (VEGF receptor type 3) (UniProt P35916 25-776)
T1 construct: Immobilised on CM5 chip; printed without an IgG suffix; also called VEGF receptor 3
T1 sequence: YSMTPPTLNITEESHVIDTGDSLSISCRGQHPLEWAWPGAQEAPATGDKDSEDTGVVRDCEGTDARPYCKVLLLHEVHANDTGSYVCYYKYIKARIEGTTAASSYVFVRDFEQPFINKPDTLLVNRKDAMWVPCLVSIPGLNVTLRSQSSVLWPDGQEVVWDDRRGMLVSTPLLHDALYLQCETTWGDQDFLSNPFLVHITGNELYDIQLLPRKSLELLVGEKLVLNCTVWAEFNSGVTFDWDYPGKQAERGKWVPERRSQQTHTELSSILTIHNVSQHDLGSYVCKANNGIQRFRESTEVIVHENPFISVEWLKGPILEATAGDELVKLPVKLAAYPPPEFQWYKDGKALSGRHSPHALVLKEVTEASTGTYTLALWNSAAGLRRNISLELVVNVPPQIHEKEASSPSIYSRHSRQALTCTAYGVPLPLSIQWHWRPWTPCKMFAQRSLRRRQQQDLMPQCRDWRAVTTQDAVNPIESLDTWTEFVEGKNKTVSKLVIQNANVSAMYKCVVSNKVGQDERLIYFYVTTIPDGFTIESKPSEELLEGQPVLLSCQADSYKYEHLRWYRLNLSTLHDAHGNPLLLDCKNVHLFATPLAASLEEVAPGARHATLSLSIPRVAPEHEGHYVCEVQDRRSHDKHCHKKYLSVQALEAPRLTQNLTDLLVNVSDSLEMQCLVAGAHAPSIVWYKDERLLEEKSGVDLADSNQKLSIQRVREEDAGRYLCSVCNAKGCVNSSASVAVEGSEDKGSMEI

B1: VR-1 (VEGF-like protein purified from the venom of Daboia russelli russelli) (ligand)
chain: EVRPFLDVYQRSACQTRETLVSILQEHPDEISDIFRPSCVAVLRCSGCCTDESMKCTPVGKHTADIQIMRMNPRTHSSKMEVMKFMEHTACECRPRWKQGEPEGPKEPR
modifications: pyrrolidone ring at N-terminus (opened with methanol-hydrochloric acid for sequencing)
notes: also called VR-1 protein
B2: vammin (VEGF-like protein purified from the venom of Vipera ammodytes ammodytes) (ligand)
chain: EVRPFLEVHERSACQARETLVPILQEYPDEISDIFRPSCVAVLRCSGCCTDESLKCTPVGKHTVDLQIMRVNPRTQSSKMEVMKFTEHTACECRPRRKQGEPDGPKEKPR
modifications: pyrrolidone ring at N-terminus (opened with methanol-hydrochloric acid for sequencing)
notes: also called vammin protein
B3: HF (hypotensive factor from the venom of Vipera aspis aspis) (ligand)
chain: EVRPFLEVHERSACQARETLVSILQEYPDEISDIFRPSCVAVLRCSGCCTDESLKCTPVGKHTVDLQIMRVNPRTQSSKMEVMKFTEHTACECRPRRKQGEPDGPKEKPR
notes: also called HF protein

Experiments:
KDR-IgG [1] = biological target: T2, KDR-IgG (UniProt P35968 20-764); experiment: SPR (BIAcore 3000), KDR-IgG immobilised on CM5 chip
T2 construct: Immobilised on CM5 chip by amine coupling; also called KDR-lgG; VEGF receptor 2; not shown: IgG part of the fusion
T2 sequence (P35968 20-764 limits assumed): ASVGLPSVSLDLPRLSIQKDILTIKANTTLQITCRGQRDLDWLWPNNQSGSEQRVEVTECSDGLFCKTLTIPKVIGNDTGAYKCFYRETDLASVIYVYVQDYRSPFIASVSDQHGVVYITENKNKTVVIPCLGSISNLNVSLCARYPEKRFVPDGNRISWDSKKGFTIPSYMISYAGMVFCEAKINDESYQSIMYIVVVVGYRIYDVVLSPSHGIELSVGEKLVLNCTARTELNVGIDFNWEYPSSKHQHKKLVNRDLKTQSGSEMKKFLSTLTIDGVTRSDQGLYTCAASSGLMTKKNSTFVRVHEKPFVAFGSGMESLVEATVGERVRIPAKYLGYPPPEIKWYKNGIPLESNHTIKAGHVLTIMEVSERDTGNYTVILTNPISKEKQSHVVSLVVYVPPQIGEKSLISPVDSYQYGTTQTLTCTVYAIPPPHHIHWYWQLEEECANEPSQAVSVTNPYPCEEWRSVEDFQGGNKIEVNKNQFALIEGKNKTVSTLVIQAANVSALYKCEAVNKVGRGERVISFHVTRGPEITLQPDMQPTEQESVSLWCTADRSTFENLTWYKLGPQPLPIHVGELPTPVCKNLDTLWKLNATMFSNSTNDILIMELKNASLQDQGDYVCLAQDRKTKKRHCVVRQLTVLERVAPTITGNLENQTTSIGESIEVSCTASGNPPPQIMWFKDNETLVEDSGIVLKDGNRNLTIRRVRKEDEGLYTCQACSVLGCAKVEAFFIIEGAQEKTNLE

Flt-1-IgG = biological target: T3, Flt-1-IgG (UniProt P17948 27-687); experiment: SPR (BIAcore 3000), receptor-IgG immobilised on CM5 chip
T3 construct: Immobilised on CM5 chip by amine coupling; also called Flt-1-lgG; Flt-1-lg; not shown: IgG part of the fusion
T3 sequence (P17948 other isoform, or with tags, fused parts or gaps limits assumed): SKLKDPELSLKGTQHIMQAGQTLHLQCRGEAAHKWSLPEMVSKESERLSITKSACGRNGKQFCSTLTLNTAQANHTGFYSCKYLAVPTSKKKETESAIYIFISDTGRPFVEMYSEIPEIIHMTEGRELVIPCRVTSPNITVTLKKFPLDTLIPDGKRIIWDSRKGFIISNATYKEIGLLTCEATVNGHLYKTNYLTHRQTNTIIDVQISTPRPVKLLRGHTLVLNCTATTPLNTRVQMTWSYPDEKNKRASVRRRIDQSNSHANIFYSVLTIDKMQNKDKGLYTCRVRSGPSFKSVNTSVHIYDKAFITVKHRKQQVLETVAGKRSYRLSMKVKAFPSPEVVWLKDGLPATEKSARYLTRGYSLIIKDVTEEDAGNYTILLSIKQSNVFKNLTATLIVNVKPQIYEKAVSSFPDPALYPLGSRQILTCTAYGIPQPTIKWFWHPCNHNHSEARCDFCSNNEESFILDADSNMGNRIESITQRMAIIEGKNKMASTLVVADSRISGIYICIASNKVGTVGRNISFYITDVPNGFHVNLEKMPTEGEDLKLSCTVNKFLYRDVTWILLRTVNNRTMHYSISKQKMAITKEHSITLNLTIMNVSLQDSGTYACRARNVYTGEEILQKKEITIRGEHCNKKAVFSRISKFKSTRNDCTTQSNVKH

KDR-IgG [2] = biological target: T2, KDR-IgG; experiment: SPR (BIAcore 3000), KDR-IgG immobilised on CM5 chip; kdiss/kass
Method: An apparatus for measurement based on surface plasmon resonance technique: BlAcore 3000 (Biosensor) was used to evaluate the properties of binding to and dissociation from a VEGF receptor as for a VEGF-like protein. Experiment for analysis of the receptor binding was conducted at 25° C. using an HBS buffer (10 mM HEPES, pH 7.4, 150 mM NaCl, 3 mM EDTA, 0.005% polysorbate 20). Flt-1-lgG and KDR-lgG were immobilized on a CM5 sensor chip using an amine coupling kit (Biosensor), respectively.
They were injected into a flow cell at a flow rate of 20 μL/min. A signal from a blank flow channel as a negative control was subtracted as a background signal from the signal from the sample flow channel, for background correction. In the association process, while injecting a solution with the above protein concentration on the sensor chip at the above flow rate, increase in the resonance signal was detected. In the dissociation process, while injecting the above buffer on the sensor chip at the above flow rate, decrease in the resonance signal was measured.
A rate constant for association (kₐₛₛ), a rate constant for dissociation (kdiss) and the maximum binding amount (Rₘₐₓ) for binding to a VEGF receptor in each VEGF-like protein were calculated using a BIA evaluation 3.1 curve fitting software (Biosensor). An apparent dissociation constant (Kd) was calculated as a ratio of the rate constants (kdiss/kₐₛₛ) from the calculated values.

[3] = biological target: T1, Flt-4 (VEGF receptor type 3); experiment: SPR (BIAcore 3000), receptor immobilised on CM5 chip

| Binder | koff (KDR-IgG [1]) | kon (KDR-IgG [1]) | binding result (Flt-1-IgG) | Kd (KDR-IgG [2]) | binding result [3] |
| --- | --- | --- | --- | --- | --- |
| B1 | 1.29e-05 s⁻¹ | 39000 M⁻¹ s⁻¹ | no binding (tested: 3, 10 and 30 nM) | 0.332 nM | – |
| B2 | 4.6e-06 s⁻¹ | 11200 M⁻¹ s⁻¹ | no binding (tested: 3, 10 and 30 nM) | 0.411 nM | no binding (tested: 500 nM) |
| B3 | 9.6e-06 s⁻¹ | 28800 M⁻¹ s⁻¹ | no binding (tested: 3, 10 and 30 nM) | 0.334 nM | – |
